The values below come from patent publication US20240094220A1 (NORTHEASTERN UNIVERSITY, published 2024).

For this assay, the target named is T1, mouse PD-L1 on the surface of DC 2.4 dendritic cells (mouse, UniProt Q9EP73 19-290).
T1 construct: whole, on cells; also called Programmed Death-Ligand 1
As to the kind of experiment: flow cytometry on DC 2.4 cells, purified Nb detected with fluorophore-conjugated anti-FLAG antibody. As for the experimental part: While the majority of anti-PD-L1 and anti-CTLA-4 Nbs are currently produced intracellularly in E. coli, the lengthy processes of lysing bacteria and removing endotoxins may dramatically increase costs and demand a centralized facility for production. […] Of note, in the shake-flask expression system, anti-PD-L1 and anti-CTLA-4 Nbs can be secreted into the supernatant of B. subtilis culture at ˜15 mg per liter of culture. To further confirm that these Nbs remain functional following secretion and purification, the mouse dendritic cell line DC 2.4 was chosen because it is known to constitutively express the immunoinhibitory receptor PD-L1 on the cell surface (FIG. 5, Panel A), and it was also validated the expression of PD-L1 by a commercial antibody specific for mouse PD-L1. […] The stained samples were analyzed by flow cytometry and fluorescence microscopy—results of flow cytometry indicated the specific binding of purified anti-PD-L1 Nbs and no binding for the anti-caffeine Nb control in comparison to the unstained sample (FIG. 5, Panel B). […] To further test whether the purification step could be bypassed by directly using bacterial supernatant, 200 μl of the original B. subtilis supernatant containing the anti-PD-L1 Nb was applied to stain ˜one million DC 2.4 cells for fluorescence microscopy.

T1 sequence (Q9EP73 19-290): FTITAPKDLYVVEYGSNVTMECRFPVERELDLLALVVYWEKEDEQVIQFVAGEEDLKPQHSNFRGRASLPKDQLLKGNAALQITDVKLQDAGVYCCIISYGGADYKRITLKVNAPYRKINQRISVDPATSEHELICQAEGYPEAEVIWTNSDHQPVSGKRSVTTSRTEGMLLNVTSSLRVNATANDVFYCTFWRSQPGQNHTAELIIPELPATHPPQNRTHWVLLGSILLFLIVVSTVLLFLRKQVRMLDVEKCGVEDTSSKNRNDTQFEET

B1: anti-caffeine nanobody secreted from B. subtilis (CBD fusion, with FLAG epitope) (VHH, not shown: large carriers)
VHH: QVQLVESGGGLVQAGGSLRLSCTASGRTGTIYSMAWFRQAPGKEREFLATVGWSSGITYYMDSVKGRFTISRDKGKNTVYLQMDSLKPEDTAVYYCTATRAYSVGYDYWGQGTQVTVSS
notes: Negative control in the PD-L1 staining; also called anti-caffeine Nb; CBD-anti-caffeine Nb
For the molecule B1, the binding result is “no binding”.
